Test results reported in article PMC5335569, “Biophysical studies suggest a new structural arrangement of crotoxin and provide insights into its toxic mechanism” (Scientific Reports, 2017).

Target: the molecule itself
Assay: small angle X-ray scattering

B1: Crotoxin B (enzyme)
chain: HLLQFNKMIKFETRKNAVPFYAFYGCYCGWGGQGRPKDATDRCCFVHDCCYGKLAKCNTKWDIYRYSLKSGYITCGKGTWCEEQICECDRVAAECLRRSLSTYKNGYMFYPDSRCRGPSETC
stoichiometry N: 4
